Experiments:
[1] = target: human GLT25D1/COLGALT1 (wild type) (human) (UniProt Q8NBJ5); experiment: mass photometry
[2] = target: human GLT25D1/COLGALT1 (wild type) (human) (UniProt Q8NBJ5); experiment: SEC-MALS
[3] = target: human GLT25D1/COLGALT1 (wild type) (human) (UniProt Q8NBJ5); experiment: SEC-SAXS

Measured: stoichiometry N

human GLT25D1/COLGALT1 (wild type) (from UniProt Q8NBJ5 30-618) (enzyme)
2: all assays above
